Assays:
[1] = target: T1, human CD8 alpha (CD8A) on primary human CD8+ T cells (human, UniProt P01732 22-235); assay: flow cytometry, human CD8+ T cells, 0.2 uM FN3
T1 construct: whole, on cells; also called hCD8A
Procedure: (§1) Binding of the 190 ELISA hits to human and cynomologous monkey primary CD8 T cells was assessed by flow cytometry. The FN3 domain molecules were diluted to 2 μM and 0.2 μM in PBS and incubated with human or cynomologous monkey CD8+ T cells in 96-well format. After 1 hour at 4 C, the cells were washed once with PBS and then resuspended with an anti-FN3 domain antibody (PAB25) solution. Following this incubation, the cells were washed twice with PBS and a PE conjugated secondary antibody and a viability dye were added. Finally, cells were washed and resuspended in PBS for flow cytometric analysis using a BD Canto Instrument. Cells were gating on live cells and median fluorescence intensity of the bound Centyrins (PE channel) was calculated using Cytobank software.

[2] = target: T2, In house human CD8A-Fc (human, UniProt P01732 22-182, limits assumed); assay: SPR (ProteOn), captured hCD8A-Fc
T2 construct: Captured on goat anti-human Fc on a ProteOn GLC chip; also called hCD8A-Fc; recombinant human CD8 alpha; not shown: linker with flag (and polyhistidine) tag and Fc of human IgG1
Procedure: Purified anti-CD8A FN3 domains were subjected to off-rate analysis using a Proteon surface plasmon resonance instrument in order to pick clones with the slowest off-rates for further characterization.
The immobilized GAH-Fc IgG densities averaged about 6000 Response Units (Ru) with less than 1% variation among different channels. In house human CD8A-Fc was captured in vertical orientation at 3 different ligand densities, 10, 5, 2.5 μg/ml for 5 minutes at 30 ul/minute flowrate. All FN3 domains were normalized to a 3 μM concentration, and tested for binding in horizontal orientation. All 6 analyte channels were used for FN3 domains to maximize the screening throughput. The dissociation phase was monitored for 15 minutes at a flow rate of 100 μl/min using PBST as running buffer. […] Data analyses were performed using Bio-Rad ProteOn Manager software (version 3.1.0.6). Raw data were double referenced by subtraction of the interspot (empty chip surface, no protein immobilized or captured) signals to correct the non-specific binding of the FN3 domain to the pre-coated GAH-Fc IgG surface, followed by a double correction using empty channel L6 where no hCD8A-Fc was captured. The processed binding data were locally fit to a 1:1 simple Langmuir binding model to extract the koff for each FN3 domain binding to captured hCD8A-Fc.

[3] = target: T1, human CD8 alpha (CD8A) on primary human …; assay: flow cytometry, human CD8+ T cells, 2 uM FN3
Procedure: as §1

[4] = target: T3, cynomolgus monkey CD8A on primary cynomolgus monkey CD8+ T cells (cynomolgus monkey, UniProt P01732 23-235 (human entry)); assay: flow cytometry, cyno CD8+ T cells, 2 uM FN3
T3 construct: also called Cyno CD8alpha
Procedure: as §1

[5] = target: T3, cynomolgus monkey CD8A on primary …; assay: flow cytometry, cyno CD8+ T cells, 0.2 uM FN3
Procedure: as §1

T1 sequence (P01732 22-235): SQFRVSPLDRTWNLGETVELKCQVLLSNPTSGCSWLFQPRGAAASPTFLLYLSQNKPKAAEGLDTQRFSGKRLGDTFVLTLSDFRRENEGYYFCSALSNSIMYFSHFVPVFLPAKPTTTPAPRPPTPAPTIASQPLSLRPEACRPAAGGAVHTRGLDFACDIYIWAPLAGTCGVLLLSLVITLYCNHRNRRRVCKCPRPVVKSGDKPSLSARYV
T3 sequence (P01732 other isoform, or with tags, fused parts or gaps limits assumed): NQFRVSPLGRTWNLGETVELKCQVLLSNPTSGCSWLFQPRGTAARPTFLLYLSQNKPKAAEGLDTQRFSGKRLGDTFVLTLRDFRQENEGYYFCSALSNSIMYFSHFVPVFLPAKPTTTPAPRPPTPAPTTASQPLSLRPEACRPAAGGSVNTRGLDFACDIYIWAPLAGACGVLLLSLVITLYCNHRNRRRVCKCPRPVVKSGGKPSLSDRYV
T2 sequence (P01732 22-182 limits assumed): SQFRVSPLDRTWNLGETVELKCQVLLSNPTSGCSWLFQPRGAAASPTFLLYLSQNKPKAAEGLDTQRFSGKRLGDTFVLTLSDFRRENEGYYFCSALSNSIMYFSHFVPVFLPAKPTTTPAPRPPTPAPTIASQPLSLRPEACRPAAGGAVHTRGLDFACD

Row | Binder | Human T-cell Binding 0.2 uM (MFI) [1] | koff [2] | Human T-cell Binding 2 uM (MFI) [3] | Cyno T-cell Binding 2 uM (MFI) [4] | Cyno T-cell Binding 0.2 uM (MFI) [5]
1 | P282DR9P1359_E2 (designed binder, FN3 domain) LPAPKNLVVSRVTEDSARLSWTAPDAAFDSFNIFYPEIVTWGEAIVLTVPGSERSYDLTGLKPGTEYWVNIVGVKGGDNSWPLSAIFTT | 4820 MFI | 0.00206 s⁻¹ | 28500 MFI | 77700 MFI | 10900 MFI
2 | P282DR9P1359_F11 (designed binder, FN3 domain) LPAPKNLVVSRVTEDSARLSWTAPDAAFDSFDIFYPELPIHGEAIVLTVPGSERSYDLTGLKPGTEYWVNITGVKGGDFSWPLSAIFTT | 6590 MFI | 0.000554 s⁻¹ | 35600 MFI | 86700 MFI | 16100 MFI
3 | P282CR9P1358_F11 (designed binder, FN3 domain) LPAPKNLVVSRVTEDSARLSWTAPDAAFDSFLIAYPEWPIFEGEAIVLTVPGSERSYDLTGLKPGTEYFVVIYGVKGGEQSSPLSAIFTT | 749 MFI | 0.00135 s⁻¹ | 6420 MFI | 62400 MFI | 6580 MFI
4 | P282DR9P1359_E11 (designed binder, FN3 domain) LPAPKNLVVSRVTEDSARLSWTAPDAAFDSFYISYPEWPPVGEAIVLTVPGSERSYDLTGLKPGTEYWVIIYGVKGGAISTPLSAIFTT | 7580 MFI | 0.000265 s⁻¹ | 40600 MFI | 104000 MFI | 33100 MFI
5 | P282DR9P1359_E3 (designed binder, FN3 domain) LPAPKNLVVSRVTEDSARLSWTAPDAAFDSFAIAYPELPLGGEAIVLTVPGSERSYDLTGLKPGTEYFVIIYGVKGGVESFPLSAIFTT | 349 MFI | 0.00263 s⁻¹ | 4310 MFI | 52400 MFI | 1620 MFI
6 | P282DR9P1359_E6 (designed binder, FN3 domain) LPAPKNLVVSRVTEDSARLSWTAPDAAFDSFWIAYPEWPVQGEAIVLTVPGSERSYDLTGLKPGTEYFVVIQGVKGGTPSWPLSAIFTT | 1260 MFI | 0.00171 s⁻¹ | 20500 MFI | 61700 MFI | 5060 MFI
7 | P282DR9P1359_E5 (designed binder, FN3 domain) LPAPKNLVVSRVTEDSARLSWTAPDAAFDSFAISYPEWPVPGEAIVLTVPGSERSYDLTGLKPGTEYFVIIYGVKGGLYSAPLSAIFTT | 1950 MFI | 0.00101 s⁻¹ | 24100 MFI | 81200 MFI | 13600 MFI
8 | P282DR9P1359_A7 (designed binder, FN3 domain) LPAPKNLVVSRVTEDSARLSWTAPDAAFDSFRIGYPELEKLGYGEAIVLTVPGSERSYDLTGLKPGTEYWVIIWGVKGGENSWPLSAIFTT | 8760 MFI | 0.000754 s⁻¹ | 38400 MFI | 83900 MFI | 22800 MFI
9 | P282DR9P1359_F2 (designed binder, FN3 domain) LPAPKNLVVSRVTEDSARLSWTAPDAAFDSFNIAYPEALHPGYGEAIVLTVPGSERSYDLTGLKPGTEYWVIIGGVKGGQKSWPLSAIFTTGGHHHDHH | 3050 MFI | 0.000722 s⁻¹ | 18400 MFI | 38200 MFI | 4030 MFI
10 | P282DR9P1359_B2 (designed binder, FN3 domain) LPAPKNLVVSRVTEDSARLSWTAPDAAFDSFWIAYTEWPIPYEEAGQEGEAIVLTVPGSERSYDLTGLKPGTEYWVSIYGVKGGPNSQPLSAIFTT | 2730 MFI | 0.000638 s⁻¹ | 22200 MFI | 60900 MFI | 4470 MFI
11 | P282DR9P1359_G4 (designed binder, FN3 domain) LPAPKNLVVSRVTEDSARLSWTAPDAAFDSFEIAYPEWPPPGEAIVLTVPGSERSYDLTGLKPGPEYFVVIQGVKGGDPSFPLSAIFTTGGNHHHHH | 2670 MFI | 0.000517 s⁻¹ | 26600 MFI | 78600 MFI | 6010 MFI

Other lines, results leading:

Row | Human T-cell Binding 0.2 uM (MFI) [1] | koff [2] | Human T-cell Binding 2 uM (MFI) [3] | Cyno T-cell Binding 2 uM (MFI) [4] | Cyno T-cell Binding 0.2 uM (MFI) [5] | Binder
12 | 5550 MFI | 0.000174 s⁻¹ | 31000 MFI | 95700 MFI | 14200 MFI | P282DR9P1359_C5 (designed binder, FN3 domain) LPAPKNLVVSRVTEDSARLSWTAPDAAFDSFWITYPEWPDPGGEAIVLTVPGSERSYDLTGLKPGTEYFVVIYGVKGGEIYSPLSAIFTT
13 | 1290 MFI | 0.00216 s⁻¹ | 18200 MFI | 19900 MFI | 457 MFI | P282DR9P1359_C11 (designed binder, FN3 domain) LPAPKNLVVSRVTEDSARLSWTAPDAAFDSFKIAYPEFPPPGEAIVLTVPGSERSYDLTGLKPGTEYYVIIIGVKGGTDSWPLSAIFTT
14 | 2920 MFI | 0.00119 s⁻¹ | 26100 MFI | 81000 MFI | 16900 MFI | P282DR9P1359_E8 (designed binder, FN3 domain) LPAPKNLVVSRVTEDSARLSWTAPDAAFDSFQIAYPEWPVIGEAIVLTVPGSERSYDLTGLKPGTEYWVIIQGVKGGYTSWPLSAIFTT
15 | 542 MFI | 0.00193 s⁻¹ | 4540 MFI | 37100 MFI | 1750 MFI | P282DR9P1359_D12 (designed binder, FN3 domain) LPAPKNLVVSRVTEDSARLSWTAPDAAFDSFRIAYPETATWGEAIVLTVPGSERSYDLTGLKPGTEYFVIIYGVKGGFESAPLSAIFTT
16 | 6930 MFI | 0.000365 s⁻¹ | 38300 MFI | 96500 MFI | 26300 MFI | P282DR9P1359_F7 (designed binder, FN3 domain) LPAPKNLVVSRVTEDSARLSWTAPDAAFDSFAIAYPEWPPQGEAIVLTVPGSERSYDLTGLKPGTEYFVVIYGVKGGSYSAPLSAIFTT
17 | 646 MFI | 0.00106 s⁻¹ | 6340 MFI | 48900 MFI | 3080 MFI | P282DR9P1359_F3 (designed binder, FN3 domain) LPAPKNLVVSRVTEDSARLSWTAPDAAFDSFYITYPEWPVQGEAIVLTVPGSERSYDLTGLKPGTEYWVIIYGVKGGTESEPLSAIFTT
18 | 944 MFI | 0.000978 s⁻¹ | 15100 MFI | 66500 MFI | 3640 MFI | P282DR9P1359_C12 (designed binder, FN3 domain) LPAPKNLVVSRVTEDSARLSWTAPDAAFDSFYISYPEWPVPGEAIVLTVPGSERSYDLTGLKPGTEYWVVIYGVKGGALSVPLSAIFTT
19 | 3780 MFI | 0.000389 s⁻¹ | 19900 MFI | 73200 MFI | 10700 MFI | P282DR9P1359_F6 (designed binder, FN3 domain) LPAPKNLVVSRVTEDSARLSWTAPDAAFDSFDIAYPEWPTTGEAIVLTVPGSERSYDLTGLKPGTEYFVVIWGVKGGDHSAPLSAIFTT
20 | 6130 MFI | 0.000114 s⁻¹ | 37600 MFI | 69100 MFI | 8770 MFI | P282DR9P1359_G7 (designed binder, FN3 domain) LPAPKNLVVSRVTEDSARLSWTAPDAAFDSFAITYIEKEHIEDGEAIVLTVPGSERSYDLTGLKPGTEYWVPIWGVKGGANSWPLSAIFTT
